This note sets out measurements from the supplement of paper PMC9170038.

In this series the test system is MS2 coat protein. Put plainly: apparent KD of MS2 coat protein; higher = weaker reporter binding. The following applies: Eterna round: R107. In short, it runs like this:
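Designed RNA switches were made by on-chip transcription from Illumina sequencing clusters and then titrated with SNAP-549-labelled MS2 coat protein. Twofold steps ran from 0.7 or 1.5 nM to 3 µM, each lasting 0.8–1.5 h early and 10–20 min late, in 100 mM Tris-HCl pH 7.5, 80 mM KCl, 4 mM MgCl2, without or with constant ligand. Apparent KD is the per-design median of normalised cluster binding-curve fits.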

The mark [1] stands for this setting: input ligand: theophylline 20 uM.
Setting [2] is: input ligand: tryptophan 2.4 mM.
The mark [3] stands for this setting: input ligand: theophylline 2 mM.

For the sequence “UUAGAUAUGACGGAUACCAGCGUGUUGUAGAACAUGAGGAUCACCCAUGUAGUGAUCAUGCGCCCUUGGCAGCUGGUAUGUUUGG [7.U]”, the “apparent KD of MS2 coat protein” value reads like this: (input ligand: arginine 13.2 mM) 178 nM; under setting [1], 386 nM; under setting [2], 566 nM.
The corresponding values for “UGACAUUGCUGCGAUACCAGACAUGAGGAUCACCCAUGUACCAAGGUAAAGAAAUAACGUGUCCCUUGGCAGCGCAGCAAUGUCU [MAT - Exclusion Theophlline B - Mod of Eli - D8]” are 11.5 nM, 13.9 nM and 10.1 nM.
As to “ACAUGAGGAUCACCCAUGUACAUGAGGGAAGGAGCGGUACAUGUGCCAGGUAGGUCGCCCAAGAGCAUCAGCCAUGUACAUCAGC [qasmullin]”, the “apparent KD of MS2 coat protein” value is, setting by setting: (input ligand: arginine 13.2 mM) 43.5 nM; (input ligand: none) 131 nM; under setting [1], 131 nM; under setting [3], 90 nM; under setting [2], 80.5 nM.
“GAGCUGAUGUAGAAAUUUUAUUUAUGAGAUACCAGUACAGAAAUGUACCCUUGGCAGCUCAAUUUUACAUGAGGAUCACCCAUGU [Ex Theophylline A 13]”: the “apparent KD of MS2 coat protein” value was 16.8 nM (input ligand: arginine 13.2 mM), 12.5 nM under setting [1] and 11.5 nM under setting [2].
With “UUAAUCAAAUUAGAAAACUAAUUUGCAGAAGGAGCGUGAUAAAACACAGGUAGGUCGCUGAAGGGAACAUGAGGAUCACCCAUGU [AstrosSSArgA#11]”, the “apparent KD of MS2 coat protein” value stood at 26.7 nM (input ligand: arginine 13.2 mM); 26 nM (input ligand: none); 35.7 nM under setting [1]; 29.5 nM under setting [3]; 25.7 nM under setting [2].
On to “AUUCUUUACUGAAGGAGCGUCAUUCUUACAUGAGGAUCACCCAUGUUUAUUCUUUAUUAUUGACAGGUAGGUCGCAGAUUUUUUA [JR_SSArginiB_Sub018]”, for which the “apparent KD of MS2 coat protein” value is 15.5 nM (input ligand: arginine 13.2 mM); 13.8 nM (input ligand: none); 17.7 nM under setting [1]; 14.3 nM under setting [3]; 14.3 nM under setting [2].
Turning to “CUAUAGAUAAGAAGGAGCGACAUGAGGAUCACCCAUGUCUACCACGUCGAAAGACGCUCAUGUCAGGUAGGUCGCUUAUUUAUAG [Astros-Eli-mod7]”, the “apparent KD of MS2 coat protein” value runs as follows: (input ligand: arginine 13.2 mM) 71.1 nM; (input ligand: none) 117 nM; under setting [1], 99.2 nM; under setting [3], 129 nM; under setting [2], 84.1 nM.
Turning to “ACGUUGAAGUCGGCCGCCACUGAUUUCAUGUUCAACAUGAGGAUCACCCAUGUACCUUAUGUUAACAGGACCGGGACGUAUACGA [JR_SSTryptoB_Sub002]”, the “apparent KD of MS2 coat protein” value is, setting by setting: (input ligand: arginine 13.2 mM) 264 nM; under setting [1], 341 nM; under setting [3], 551 nM.
With “GAUGAACUAUGUGAUACCAGACAACAUGAGGAUCACCCAUGUGCGCGUCGUCCUCUGCCUGUCCCUUGGCAGCGUAUAGUUUAUC [XTheo B #13]”, the “apparent KD of MS2 coat protein” value is, setting by setting: (input ligand: arginine 13.2 mM) 77.9 nM; under setting [1], 110 nM; under setting [2], 47.8 nM.
For “AAACUGGGUGUAAAAUAAAUAAUCACUGAUACCAGACUAUGAGAUGUCCCUUGGCAGCAGAAACAUGAGGAUCACCCAUGUAAUA [JR_Nu_ExcTheophyA_Sub026]” the same measures were 19.6 nM, 24.5 nM and 25.2 nM.
The corresponding values for “UACAUGAGGAUCACCCAUGUGGCGGAUGAUACCAGUAUGGUGACAUACCCUUGGCAGCAUGCUAUGAGGAUCACCCAUGUGUGCA [EThA NP+V+V2 #11 DOUBLE]” are 56.3 nM, 84.9 nM and 70.7 nM.
In the case of “UAUACAUGAGGAUCACCCAUGUACCAUGAAGGAGCGCAGAAAUCUGCAGGUAGGUCGCAUGGGUUAUGACCUCGGCAUAAUAACG [Enreusus]”, the “apparent KD of MS2 coat protein” value (input ligand: arginine 13.2 mM) is 40.5 nM; the “apparent KD of MS2 coat protein” value (input ligand: none) was determined as 27.8 nM; the “apparent KD of MS2 coat protein” value under setting [1] is 46.9 nM; the “apparent KD of MS2 coat protein” value under setting [3] was 39.7 nM; the “apparent KD of MS2 coat protein” value under setting [2] turned out to be 26.2 nM.
Consider “UCGCUCGCAGAAAUGCGAGCGAGUUGCGAUACCAGCCCGGAAACGGGCCCUUGGCAGCGCACAUGAGGAUCACCCAUGUCAUGUU [Exclusion - Theophylline A Attempt #2 (HarryS)]”, for which the “apparent KD of MS2 coat protein” value by setting is: (input ligand: arginine 13.2 mM) 17.3 nM; under setting [1], 24.7 nM; under setting [2], 18.1 nM.
For the sequence “CACGAUUUGUCGGCCGCCACUAAGGUAACUCUUCUCACAUGAGGAUCACCCAUGUGCCCGAAGCUUAGGACCGGGAUAAUGGGUG [Dieson]”, the “apparent KD of MS2 coat protein” value was found to be 32.3 nM (input ligand: arginine 13.2 mM), 150 nM under setting [1] and 288 nM under setting [3].
Regarding “GGAUUAGAGGCGGCCGCCACUGGAACAUGAGGAUCACCCAUGUAGUGCAUGUAAUUAACCUCGAUCAGGACCGGGCCGAUAGUCA [Exclusion - Tryptophan B / A]”, the “apparent KD of MS2 coat protein” value runs as follows: (input ligand: arginine 13.2 mM) 51.9 nM; under setting [1], 85.2 nM; under setting [3], 67.2 nM.
As to “AAAGGUCGCAAUAAAUCUCCUACAUGUGAAGGAGCGCCCGAAAGGGCAGGUAGGUCGCACAUGAGGAUCACCCAUGUGAGCGACC [MAT - Exclusion Arginine A - Mod of Eli - D2]”, the “apparent KD of MS2 coat protein” value by setting is: (input ligand: arginine 13.2 mM) 10.3 nM; (input ligand: none) 12.4 nM; under setting [1], 14.6 nM; under setting [3], 13 nM; under setting [2], 11.8 nM.
Take “ACUACAAAGUAGUAUAUACGAAAGUAUAGACGAGGACCGGUACGGCCGCCACUCGGUACCGGAAACACAUGAGGAUCACCCAUGU [Ex_TrypA - 3H]”: the “apparent KD of MS2 coat protein” value (input ligand: arginine 13.2 mM) is 17 nM, the “apparent KD of MS2 coat protein” value under setting [1] came to 25 nM and the “apparent KD of MS2 coat protein” value under setting [3] was 23 nM.
Take “AGAGUUAGACAAAAGUCUAGCUCACCAGAAGGAGCGUCCGAAAGGACAGGUAGGUCGCUGGUACCUGAGGAUCACCCGGGUUCCU [ArgAS 17 #OpenEnded #AlternativeMS2]”: the “apparent KD of MS2 coat protein” value by setting is: (input ligand: arginine 13.2 mM) 134 nM; (input ligand: none) 282 nM; under setting [1], 172 nM; under setting [3], 244 nM; under setting [2], 80.5 nM.
For “AGCGACAUGCAUGAUACCAGCUACAUGAGGAUCACCCAUGUACGUCAGUAAUGACUGUGUAGCCCUUGGCAGCAUAGAGCAUGUC [Exclusion - Theophylline B (Freestyle 16)]”, the “apparent KD of MS2 coat protein” value came to 14.3 nM (input ligand: arginine 13.2 mM), 28.8 nM under setting [1] and 17.3 nM under setting [2].
For “UAUAUAUAAAUUGAUACCAGCGAGAAAACAUGAGGAUCACCCAUGUUCGCCCAUGUUAAGCGCCCUUGGCAGCAAUAUUAUUAUU [AstrosExyTheB#3]” the same measures were 18.8 nM, 33.4 nM and 33.8 nM.
For “AGACAUGAGGAUCACCCAUGUAGCAUGGAUACCAGAUGUAGAUUUGUCCCUUGGCAGCUGUGGUAAAGUGAUGCAUUGCUCCUAG [Exclusion - Theophylline A (Freestyle 4)]” the same measures were 34.4 nM, 61.5 nM and 33.3 nM.
Take “UGAUAUAUGCGAAGGAGCGGGAAAUAUAUAUAUAUAAUCCUAACAUGAGGAUCACCCAUGUCCCAGGUAGGUCGCGCAUAUAUUG [12.D]”: the “apparent KD of MS2 coat protein” value was determined as 58.7 nM (input ligand: arginine 13.2 mM); 64.8 nM (input ligand: none); 78.5 nM under setting [1]; 77.1 nM under setting [3]; 59.7 nM under setting [2].
For “AAGGGUGGGUCUCUAAUCCGUUUGACGGAUACCAGCGAGAGAUAUCGCCCUUGGCAGCCGACGACAUGAGGAUCACCCAUGUAAA [#05 Exclusion-TheophyllineA]” the same measures were 16.8 nM, 18.7 nM, 22.5 nM, 34.8 nM and 15.8 nM.
With “AAAUAUUACGGAAGGAGCGUCUCAUAUAUGAAACAUGAGGAUCACCCAUGUGAUAAUGAACGACAGGUAGGUCGCCGAUAAUUGA [JR_AAArginiB_Sub029]”, the “apparent KD of MS2 coat protein” value is, setting by setting: (input ligand: arginine 13.2 mM) 16.1 nM; (input ligand: none) 16 nM; under setting [1], 22.7 nM; under setting [3], 16.8 nM; under setting [2], 15.1 nM.
The corresponding values for “AUUAUAGUUUAUAACGAAGUUGAUACAGAAGGAGCGGGAGUAAUCUCAGGUAGGUCGCUGAUAAUACAUGAGGAUCACCCAUGUG [#15 Same State - Arginine A]” are 17.1 nM, 19 nM, 19.4 nM, 24.7 nM and 18.9 nM.
Regarding “GAGCUGAUGUAGGGCGGAUAUCCGUGAGAUACCAGUACAGAAAUGUACCCUUGGCAGCUCUUCCUUACAUGAGGAUCACCCAUGU [Ex Theophylline A 26]”, the “apparent KD of MS2 coat protein” value is, setting by setting: (input ligand: arginine 13.2 mM) 23.1 nM; under setting [1], 25.5 nM; under setting [2], 19.4 nM.
